Reference: CN1660912A

How the values were obtained:
[1] = molecular target: 白细胞介素-8(IL-8), E.Coli表达的基因重组人体单核细胞来源的IL-8, 72个氨基酸 (human) (UniProt P10145); assay: ELISA, plate coated with 1ug/ml IL-8, antibody 3 ng/ml, replicate 2
[2] = molecular target: 白细胞介素-8(IL-8), E.Coli表达的基因重组人体单核细胞来源的IL-8, 72个氨基酸 (human) (UniProt P10145); assay: cell-based or functional assay
[3] = molecular target: 白细胞介素-8(IL-8), E.Coli表达的基因重组人体单核细胞来源的IL-8, 72个氨基酸 (human) (UniProt P10145); assay: ELISA, plate coated with 1ug/ml IL-8, antibody 3 ng/ml, replicate 1
[4] = molecular target: 白细胞介素-8(IL-8), E.Coli表达的基因重组人体单核细胞来源的IL-8, 72个氨基酸 (human) (UniProt P10145); assay: ELISA, plate coated with 1ug/ml IL-8, antibody 30 ng/ml, replicate 2
[5] = molecular target: 白细胞介素-8(IL-8), E.Coli表达的基因重组人体单核细胞来源的IL-8, 72个氨基酸 (human) (UniProt P10145); assay: ELISA, plate coated with 1ug/ml IL-8, antibody 30 ng/ml, mean
[6] = molecular target: 白细胞介素-8(IL-8), E.Coli表达的基因重组人体单核细胞来源的IL-8, 72个氨基酸 (human) (UniProt P10145); assay: ELISA, plate coated with 1ug/ml IL-8, antibody 3 ng/ml, mean
TNF-α = TNF-α (UniProt P01375); assay: ELISA, cross-reaction (Table 1)
MCP-3 = MCP-3 (UniProt P80098); assay: ELISA, cross-reaction (Table 1)
TGF-β = assay: ELISA, cross-reaction (Table 1)
b-FGF = b-FGF (UniProt P09038); assay: ELISA, cross-reaction (Table 1)
M-CSF = molecular target: T1, M-CSF (UniProt P09603); assay: ELISA, cross-reaction (Table 1)
T1 sequence (looked up): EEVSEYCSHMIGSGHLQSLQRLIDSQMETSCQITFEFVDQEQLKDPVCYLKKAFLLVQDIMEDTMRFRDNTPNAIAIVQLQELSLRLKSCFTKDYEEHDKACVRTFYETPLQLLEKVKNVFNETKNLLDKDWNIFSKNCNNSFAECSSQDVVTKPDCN

HSA = HSA (UniProt P02768); assay: ELISA, cross-reaction (Table 1)
EGF = EGF (UniProt P01133); assay: ELISA, cross-reaction (Table 1)
MCAF = MCAF (UniProt P13500); assay: ELISA, cross-reaction (Table 1)
IL-1β = IL-1β (UniProt P01584); assay: ELISA, cross-reaction (Table 1)
IL-7 = molecular target: T2, IL-7 (UniProt P13232); assay: ELISA, cross-reaction (Table 1)
T2 sequence (looked up): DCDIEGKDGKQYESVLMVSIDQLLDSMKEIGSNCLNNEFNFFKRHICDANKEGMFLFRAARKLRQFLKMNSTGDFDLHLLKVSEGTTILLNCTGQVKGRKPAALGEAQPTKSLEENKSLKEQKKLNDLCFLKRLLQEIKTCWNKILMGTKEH

GM-CSF = GM-CSF (UniProt P04141); assay: ELISA, cross-reaction (Table 1)
BSA = BSA (UniProt P02769); assay: ELISA, cross-reaction (Table 1)
[7] = molecular target: 白细胞介素-8(IL-8), E.Coli表达的基因重组人体单核细胞来源的IL-8, 72个氨基酸 (human) (UniProt P10145); assay: ELISA, cross-reaction (Table 1)
IL-16 = IL-16 (UniProt Q14005); assay: ELISA, cross-reaction (Table 1)
[8] = molecular target: 白细胞介素-8(IL-8), E.Coli表达的基因重组人体单核细胞来源的IL-8, 72个氨基酸 (human) (UniProt P10145); assay: ELISA, plate coated with 1ug/ml IL-8, antibody 15 ng/ml, replicate 2
[9] = molecular target: 白细胞介素-8(IL-8), E.Coli表达的基因重组人体单核细胞来源的IL-8, 72个氨基酸 (human) (UniProt P10145); assay: ELISA, plate coated with 1ug/ml IL-8, antibody 15 ng/ml, replicate 1
[10] = molecular target: 白细胞介素-8(IL-8), E.Coli表达的基因重组人体单核细胞来源的IL-8, 72个氨基酸 (human) (UniProt P10145); assay: ELISA, plate coated with 1ug/ml IL-8, antibody 30 ng/ml, replicate 1
ENA78 = molecular target: T3, ENA78 (UniProt P42830); assay: ELISA, cross-reaction with IL-8 homologues (Table 2)
T3 sequence (looked up): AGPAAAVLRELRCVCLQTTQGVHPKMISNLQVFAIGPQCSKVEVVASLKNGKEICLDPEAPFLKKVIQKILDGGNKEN

GCP2 = GCP2 (UniProt P80162); assay: as above
GROα = GROα (UniProt P09341); assay: as above
PF-4 = molecular target: T4, PF-4 (UniProt P02776); assay: as above
T4 sequence (looked up): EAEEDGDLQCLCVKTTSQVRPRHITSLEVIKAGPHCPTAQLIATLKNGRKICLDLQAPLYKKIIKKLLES

NAP-2 = molecular target: T5, NAP-2 (UniProt P02775); assay: as above
T5 sequence (looked up): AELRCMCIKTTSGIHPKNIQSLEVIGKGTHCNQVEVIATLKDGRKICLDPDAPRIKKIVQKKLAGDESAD

[11] = molecular target: 白细胞介素-8(IL-8), E.Coli表达的基因重组人体单核细胞来源的IL-8, 72个氨基酸 (human) (UniProt P10145); assay: as above
[12] = molecular target: 白细胞介素-8(IL-8), E.Coli表达的基因重组人体单核细胞来源的IL-8, 72个氨基酸 (human) (UniProt P10145); assay: ELISA, plate coated with 1ug/ml IL-8, antibody 15 ng/ml, mean

Sequence of UniProt P10145 (P10145 21-99): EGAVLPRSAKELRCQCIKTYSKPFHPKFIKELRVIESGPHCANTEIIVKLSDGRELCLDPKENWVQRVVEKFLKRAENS
Sequence of UniProt P04141 (P04141 18-144 limits assumed): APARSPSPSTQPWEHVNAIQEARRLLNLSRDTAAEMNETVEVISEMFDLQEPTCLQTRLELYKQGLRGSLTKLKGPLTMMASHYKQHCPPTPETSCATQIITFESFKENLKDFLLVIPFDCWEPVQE
Sequence of UniProt P13500 (P13500 24-99 limits assumed): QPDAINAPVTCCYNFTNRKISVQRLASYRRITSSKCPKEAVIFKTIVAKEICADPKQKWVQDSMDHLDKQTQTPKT
Sequence of UniProt P01133 (P01133 971-1023 limits assumed): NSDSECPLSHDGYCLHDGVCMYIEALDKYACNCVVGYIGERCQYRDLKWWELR
Sequence of UniProt P01584 (P01584 117-269 limits assumed): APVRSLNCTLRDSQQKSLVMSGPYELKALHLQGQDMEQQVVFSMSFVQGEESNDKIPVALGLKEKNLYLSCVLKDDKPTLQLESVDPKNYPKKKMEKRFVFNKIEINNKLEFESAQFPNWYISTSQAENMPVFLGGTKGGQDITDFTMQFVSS
Sequence of UniProt P80098 (P80098 24-99 limits assumed): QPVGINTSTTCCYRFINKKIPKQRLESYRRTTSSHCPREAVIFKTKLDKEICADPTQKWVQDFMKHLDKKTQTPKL
Sequence of UniProt P09038 (P09038 143-288 limits assumed): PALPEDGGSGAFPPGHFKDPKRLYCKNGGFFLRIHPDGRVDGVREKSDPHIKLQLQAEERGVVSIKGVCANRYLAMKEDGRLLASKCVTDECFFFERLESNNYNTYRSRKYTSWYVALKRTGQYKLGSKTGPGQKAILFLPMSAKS
Sequence of UniProt P01375 (P01375 77-233 limits assumed): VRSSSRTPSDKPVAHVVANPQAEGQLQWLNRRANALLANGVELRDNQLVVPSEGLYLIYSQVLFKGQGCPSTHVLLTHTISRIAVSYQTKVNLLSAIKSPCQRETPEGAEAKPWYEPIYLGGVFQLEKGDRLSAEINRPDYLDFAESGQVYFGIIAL
Sequence of UniProt P80162 (P80162 38-114 limits assumed): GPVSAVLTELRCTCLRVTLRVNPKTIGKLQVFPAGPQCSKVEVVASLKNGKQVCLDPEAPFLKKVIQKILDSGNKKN
Sequence of UniProt P02769 (P02769 25-607 limits assumed): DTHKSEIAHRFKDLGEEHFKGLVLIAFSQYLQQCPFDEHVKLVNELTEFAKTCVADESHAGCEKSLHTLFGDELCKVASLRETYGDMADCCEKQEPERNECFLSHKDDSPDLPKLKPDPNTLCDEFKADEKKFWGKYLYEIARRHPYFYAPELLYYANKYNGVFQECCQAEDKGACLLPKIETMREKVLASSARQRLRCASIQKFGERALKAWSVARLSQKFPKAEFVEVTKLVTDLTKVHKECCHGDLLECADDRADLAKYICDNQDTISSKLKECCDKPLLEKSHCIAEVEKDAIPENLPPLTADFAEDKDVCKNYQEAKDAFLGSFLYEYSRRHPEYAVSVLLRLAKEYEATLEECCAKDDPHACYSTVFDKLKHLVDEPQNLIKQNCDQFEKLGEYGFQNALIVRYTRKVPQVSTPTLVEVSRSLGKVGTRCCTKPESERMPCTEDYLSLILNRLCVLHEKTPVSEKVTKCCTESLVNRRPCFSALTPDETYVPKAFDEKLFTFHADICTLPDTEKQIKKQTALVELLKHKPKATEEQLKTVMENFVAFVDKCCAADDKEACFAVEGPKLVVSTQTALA
Sequence of UniProt Q14005 (Q14005 1212-1332 limits assumed): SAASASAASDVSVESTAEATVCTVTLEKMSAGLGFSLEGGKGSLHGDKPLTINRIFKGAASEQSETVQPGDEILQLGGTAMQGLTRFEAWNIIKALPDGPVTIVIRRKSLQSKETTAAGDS
Sequence of UniProt P02768 (P02768 25-609): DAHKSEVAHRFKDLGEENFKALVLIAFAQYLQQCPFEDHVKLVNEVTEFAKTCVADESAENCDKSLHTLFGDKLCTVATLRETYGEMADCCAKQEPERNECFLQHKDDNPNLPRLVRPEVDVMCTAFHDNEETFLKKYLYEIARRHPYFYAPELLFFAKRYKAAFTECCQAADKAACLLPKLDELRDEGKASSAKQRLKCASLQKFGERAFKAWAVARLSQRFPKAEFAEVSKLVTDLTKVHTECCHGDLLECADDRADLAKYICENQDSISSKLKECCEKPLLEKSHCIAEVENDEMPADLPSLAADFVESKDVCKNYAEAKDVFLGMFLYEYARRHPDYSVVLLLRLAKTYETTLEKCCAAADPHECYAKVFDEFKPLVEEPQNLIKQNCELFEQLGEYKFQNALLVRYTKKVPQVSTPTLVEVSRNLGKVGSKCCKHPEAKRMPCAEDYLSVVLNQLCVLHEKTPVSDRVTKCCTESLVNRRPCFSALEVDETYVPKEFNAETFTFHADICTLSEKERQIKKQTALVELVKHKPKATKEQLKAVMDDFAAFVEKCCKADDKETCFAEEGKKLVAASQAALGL
Sequence of UniProt P09341 (P09341 35-107 limits assumed): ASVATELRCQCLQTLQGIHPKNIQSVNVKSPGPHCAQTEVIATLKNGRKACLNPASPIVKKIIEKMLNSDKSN

B1: 抗IL-8单克隆抗体 克隆6E6(又称I8-60) (antibody, part only; not given: light variable and mouse constant regions, IgG1, V domains shown, part only)
VH: QVKLQQSGGGLVQPGGSLKFSCAASGFDFSRYWMSWVRQAPGKGLEWIGEINPDSTTINYTPSLKDKFIISRDNAKNTLYLQMSKVRSEDTALYYCARLDGYYGYFDYWGQGTTVTVSS
B1 showed an OD 450 [1] of 0.377 OD450, a 化学趋向抑制率 (antibody 0.05μg/mL, IL-8 10ng/ml, Ab∶Ag 5∶1) [2] of 17.1% and a 化学趋向抑制率 (antibody 0.5μg/mL, IL-8 10ng/ml, Ab∶Ag 50∶1) [2] of 83.9%. It also gave a 化学趋向抑制率 (antibody 5μg/mL, IL-8 10ng/ml, Ab∶Ag 500∶1) [2] of 99.8%, a 化学趋向抑制率 (antibody 50μg/mL, IL-8 10ng/ml, Ab∶Ag 5000∶1) [2] of 118% and a 抑制率(%) (IL-8 20 ng/ml, antibody 0.1 ug/ml) [2] of 48.9%. It also gave a 抑制率(%) (IL-8 20 ng/ml, antibody 1 ug/ml) [2] of 81.1%, a 抑制率(%) (IL-8 20 ng/ml, antibody 10 ug/ml) [2] of 91.1% and a 趋化指数 (IL-8 20 ng/ml, antibody 0.1 ug/ml) [2] of 2.24. For the same binder, the 趋化指数 (IL-8 20 ng/ml, antibody 1 ug/ml) [2] was 1.46, the 趋化指数 (IL-8 20 ng/ml, antibody 10 ug/ml) [2] was 1.22 and the OD 450 [3] was 0.352 OD450. It also gave an OD 450 [4] of 1.27 OD450, an OD 450 平均值 [5] of 1.18 OD450 and an OD 450 平均值 [6] of 0.365 OD450. It also gave an O.D.值 (TNF-α) of 0.039 OD, an O.D.值 (MCP-3) of 0.024 OD and an O.D.值 (TGF-β) of 0.021 OD. For the same binder, the O.D.值 (b-FGF) was 0.027 OD, the O.D.值 (M-CSF) was 0.044 OD and the O.D.值 (HSA) was 0.129 OD. For the same binder, the O.D.值 (EGF) was 0.044 OD, the O.D.值 (MCAF) was 0.023 OD and the O.D.值 (IL-1β) was 0.029 OD. For the same binder, the O.D.值 (IL-7) was 0.06 OD, the O.D.值 (GM-CSF) was 0.037 OD and the O.D.值 (BSA) was 0.147 OD. For the same binder, the O.D.值 [7] was over 2 OD, the O.D.值 (IL-16) was 0.044 OD and the OD 450 [8] was 0.708 OD450. It also gave an OD 450 [9] of 0.626 OD450, an OD 450 [10] of 1.09 OD450 and an O.D.值 (ENA78) of 0.073 OD. The O.D.值 (GCP2) was 0.088 OD, the O.D.值 (GROα) was 0.097 OD and the O.D.值 (PF-4) was 0.113 OD. For the same binder, the O.D.值 (NAP-2) was 0.031 OD, the O.D.值 [11] was over 2 OD and the OD 450 平均值 [12] was 0.667 OD450.

B2: 抗IL-8嵌合型抗体 (Chimeric anti-IL8 Ab) (antibody, part only; not given: light variable and human constant regions, not shown: a dimerising Fc or GST)
heavy: B1 VH
B2 was tested, and the OD 450 [1] was 0.398 OD450, the 抑制率(%) (IL-8 20 ng/ml, antibody 0.1 ug/ml) [2] was 48.2% and the 抑制率(%) (IL-8 20 ng/ml, antibody 1 ug/ml) [2] was 80.2%. It also gave a 抑制率(%) (IL-8 20 ng/ml, antibody 10 ug/ml) [2] of 75.1%, a 趋化指数 (IL-8 20 ng/ml, antibody 0.1 ug/ml) [2] of 2.25 and a 趋化指数 (IL-8 20 ng/ml, antibody 1 ug/ml) [2] of 1.48. The 趋化指数 (IL-8 20 ng/ml, antibody 10 ug/ml) [2] was 1.6, the OD 450 [3] was 0.406 OD450 and the OD 450 [4] was 2 OD450. For the same binder, the OD 450 平均值 [5] was 1.95 OD450, the OD 450 平均值 [6] was 0.402 OD450 and the OD 450 [8] was 1.14 OD450. For the same binder, the OD 450 [9] was 1.09 OD450, the OD 450 [10] was 1.9 OD450 and the OD 450 平均值 [12] was 1.12 OD450.
